Experimental data reported in article PMC6876712, “MglA functions as a three-state GTPase to control movement reversals of Myxococcus xanthus” (Nature Communications, 2019).

T1: MglB (MglB-2 construct, 6xHis tag cleaved by TEV protease) (M. xanthus), Q1DB03
T1 chain: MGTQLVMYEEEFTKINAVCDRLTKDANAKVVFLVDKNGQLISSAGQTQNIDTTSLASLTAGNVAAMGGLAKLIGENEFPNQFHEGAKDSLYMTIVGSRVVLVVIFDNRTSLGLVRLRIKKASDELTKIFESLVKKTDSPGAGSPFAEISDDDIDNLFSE


Tests used:
[1] = biological target: the molecule itself; test: crystal structure; unbound MglB (MglB-1), form 2 crystals in 0.1 M MES pH 6, 0.15 M ammonium sulfate, 15% PEG 4000; 20 molecules in the asymmetric unit; 2.39 Å
[2] = biological target: T1, MglB (MglB-2 construct, 6xHis tag …); test: SEC-MALS; MglB at 3 mg/mL in 20 mM Tris pH 7.5, 50 mM NaCl, 10 mM MgCl2; Superdex 75 10/300 GL; details: remark: other sources report otherwise
[3] = biological target: T1, MglB (MglB-2 construct, 6xHis tag …); test: crystal structure; MglA-GTPγS/MglB complex; equimolar MglA and MglB with 20x GTPγS, purified by SEC; crystals in 0.2 M HEPES pH 7, 16% PEG 4000; 2.8 Å; details: remark: other sources report otherwise

| stoichiometry N [2] | stoichiometry N [3] | Binder | stoichiometry N [1] |
| --- | --- | --- | --- |
|  |  | MglB (MglB-1 construct, 34-residue N-terminal tag) (natural protein, M. xanthus, MglB, GAP of MglA, Myxococcus xanthus; residues 133-165 not visible in the crystal; No cleavage of the tag is described) GTQLVMYEEEFTKINAVCDRLTKDANAKVVFLVDKNGQLISSAGQTQNIDTTSLASLTAGNVAAMGGLAKLIGENEFPNQFHEGAKDSLYMTIVGSRVVLVVIFDNRTSLGLVRLRIKKASDELTKIFESLVKKTDSPGAGSPFAEISDDDIDNLFSE | 4 |
| 2 | 2 | MglB (MglB-2 construct, 6xHis tag cleaved by TEV protease), Q1DB03 1-159 (natural protein) MGTQLVMYEEEFTKINAVCDRLTKDANAKVVFLVDKNGQLISSAGQTQNIDTTSLASLTAGNVAAMGGLAKLIGENEFPNQFHEGAKDSLYMTIVGSRVVLVVIFDNRTSLGLVRLRIKKASDELTKIFESLVKKTDSPGAGSPFAEISDDDIDNLFSE |  |
